Laboratory results from the DeepSol protein solubility set.

assay: soluble on expression in E. coli; label from the status in PepcDB or PDB records

Row | Sequence | soluble on expression in E. coli
1 | SFRMLSSSFEDDPFFADSFLAHRESMRNMMRSFSEPLGRDLLSISDGRGRTHNRRERDDGEDSLTATSFSLVPFGRFGGMHADVNPFQTMDRMMANMRSGIQELQRNFGQLSMDPNGHSFCSSSVMTYSKVGDEPPKVFQASTQTRRAPGGVKETRKAMRDSDSGLERMAVGHHIHDRGHVIRKSKNNKTGDEEVNQEFINMNESDAHAFDDEWQNEVLKYKSIGRSGNTGMRSVGHEHPGSRELKRREKIHRNSAIESGRRSNVFVDKLNVKGSPVKITKK | soluble
2 | MIRTVKPKNARAKRALVKREAKLVENVKQALFIPGQSCNKNLHDIMVDLSALKKPDMKRFNRKNDIHPFEDMSPLEFFSEKNDCSLMVLMTSSKKRKNNMTFIRTFGYKIYDMIELMVADNFKLLSDFKKLTFTVGLKPMFTFQGAAFDTHPVYKQIKSLFLDFFRGESTDLQDVAGLQHVISMTIQGDFQDGEPLPNVLFRVYKLKSYKSDQGGKRLPRIELVEIGPRLDFKIGRIHTPSPDMVTEAHKKPKQLEMKTKKNVELDIMGDKLGRIHMGKQDLGKLQTRKMKGLKSKFDQGTEEGDGEVDEDYEDEASYSDDGQEYEEEFVSATDIEPSAKRQKK | not soluble
3 | MIQYYYTKKEWGVVMEKEELKILEELRRILSNKNEAIVILNNYFKGGVGKSKLSTMFAYLTDKLNLKVLMIDKDLQATLTKDLAKTFKVELPRVNFYEGLKNGNLASSIVHLTDNLDLIPGTFDLMLLPKLTRSWTFENESRLLATLLAPLKSDYDLIIIDTVPTPSVYTNNAIVASDYVMIPLQAEEESTNNIQNYISYLIDLQEQFNPGLDMIGFVPYLVDTDSATIKSNLEELYKQHKEDNLVFQNIIKRSNKVSTWSKNGITEHKGYDKKVLSMYKNVFFEMLERIIQLENEKE | soluble
4 | MSLKHPDPAQKVEGTTATTPTKVAAFFDLDKTIIAMSSTYAYGREFMNSGLISPVEALQLSLAQATYMFAGHTSEQMDNTRDQLTAMIRGWEVQQVRSIAEETMHSVVTPTIYAEARELIEHHQELGHDVIIISASVKELVEPIARELGVHKTVTTVLEAHDGMYTGEVLFYCKGDAKAQSILDLAEANNYDLSLSFAYSDSFTDLPMLEAVGNPAAVNPDRALKKIALEQGWKILSFKNPEPLFQEGHHHHHH | soluble
5 | MAGDPMSTVAFHTLGCKVNHYETEAIWQLFKEANYERVDFEANADVFVINTCTVTNTGDKKSRQIIRRAIRQNPDAVICVTGCYAQTSSAEIMEIPGVDVVVGTQDRHKLLGYIDEFRKERQPINGVGNIMKNRKYEELDVPYFTDRTRASLKIQEGCNNFCTFCIIPWARGLMRSRDPEKVVEQATQLVNSGYKEIVLTGIHTGGYGQDLKDYNLAQLLRDLETINGLERIRISSIEASQLTDEVIDVLERSTKVVRHLHIPLQSGSDTVLKRMRRKYTMDRFSERLTKLHKALPDLAVTSDVIVGFPGETEAEFQETYDFIVKHKFSELHVFPYSPRIGTPAARMDDQIDEEIKNERVHKLITLSNQLGKLYASKFDQDVLEVIPEEQGDTEGTLVGYADNYMKVQFEGDESLIGQIVKVKITQANYPLNEGQAIKVVDFATNKSDREVLVLEHHHHHH | soluble
6 | MSLSVSLVYRKARPDDWKGILELYNSLSDDDLYLRFFTFHKLTEEEARKIADTKEHYTVIAEINGKIVGEASIYFDGEFAVVVHPDYRRLGIGTELVKRLIEFAKKNGIKKVRFYTLPENYPMIKIGKKLGFKIIEREDEVYAYLDLTNENVILEKT | soluble
7 | MLRKQARQRREYLYNKALTERLKSKQKIQETVVKSINENKAIGSKNVKKSLTAYKSLKYADEGVDDRTVNDEYHYAGCEDPKIMLTTSHNPSSRLKMFMKELRLIIPNAQQMNRGNYQLTTLMHACRANNVTDFLIVHEHRGIPDSLVVCHLPYGPTAFFNISDVVMRHDIPDIGHMSEQKPHLIFNNFKTPIGLRTVKILKHLFPVPKENSQRVMSFLNHNDSIIFRHHQYKYVNKELELTEVGPRFSLKLYQIKLGTLENIKAADTEWINRPYMNTSQKRLIFSNDPGIINKDTEALEHHHHHH | soluble
8 | RGEPYAGQVAVGATVINRTKNPKFPSTIAGVIYQPGAFTAIVDGQIHATMEPNSIRAARDALNGWDPSGGAIYYFNPATATSGWIWSRPLIIIIGKHRFCR | not soluble
9 | MGSDKIHHHHHHMGDDILSQEEVDALLRGVSGEDEDDDGGQDAQGVRGYDIGRQERIVRGRMPTLEIINERFARNLRIGLFNFLRRNAEISVGPVRVQKYSEFIRNLVVPTNLNLVHVKPLRGTGLLIFDPDLVFLIVDNLFGSDGRYHVRVEGRDFTPTEQRIIHRLLEVVFTECQKAWEPVYPIEFVYLRSEMNTQFANIATPTEVVVAMTFHIELGAGGGDFHICLPYSMVEPIRDLLSSTMQADRTEVDNRWVNLMTHQVQAAEVELVASLAHAKVTLGQILNLKNGDVVMIEIPERVEADVSGIPVFEASYGTVQGRYALKVEKILAGTNEFLESPGEHEQ | not soluble
10 | EGIPWEGNYTSWLEQKDARLQQEASQESARQKTIEKELEWVRKNPKGRQAKSKARMARFEELQNTEHQKRNETNELFIPPGER | soluble
11 | MLRSTVIVTAHRRKAFIKDAIESVMENSLKPTEIIVVKNFKDYQIDSFLETYHVKNIYTDDETLGGKISLGIYQSSGDILFFLDDDDLFSKDKIREVIYKFSKYDIGFYHNAQEVIHNKLTGSNLSTDNQRFMYYTSIDTRRLKELLYKFKAGFNGSSIVISRDLAMRCVDLLKNVNISVDTFLLFCAVENNLPIMIDFRKLTYYRIIMSQNSNTEVNDKLFKMLYEDALYFKQIFSSKALRDFIEMSIIQHDFLYKIISKKEISKRDALISMVKMLRYSLKYPNKWNFFLQGLSLLSVFSAEKSRSLYLKKVRSNSMLSILEHHHHHH | soluble
12 | PPTGECRTVVFDFDGVLAEGFEGEVRPRPLGVALARRLIGRGYRVYIVSGRPEQERSLIARLLREWCIPLGGVRGIILRRRGVGEVDHKLESIMEVEAREGCVGEVHDDNPYVLEALRRRVETLVLHTPR | not soluble
13 | MGSDKIHHHHHHMIQRRETFLNNVAEKLGRGRRTAGVKRPDYTVKPQFEVMKEHSSDQLVNVLSEQCTKIHTDVKQTKVDRLEQAIDNVLEEYSARNVITWNDPRFDQFGLTSFLQREQVEVWDHTEGERLVEKAEQADIGITFADYTLAESGTVVLLSGNGKGRSVSLLPTYYIAIIPKSTLVPRMSQVTRELHLKAASGERLPSCINFISGPSNSADIEMNLVVGVHGPIRACYIVVEDR | not soluble
14 | MSLENKMPKDFFWGNSTSSMQTEGGWNEGGKGPSVYDVNTAGRSAKDWQVTNDNYHHYSQDLDLMKEMNMNMYRFQISWSRIVPDGDGEFNEEGIAFYNRLIDDLLARGIEPMICLYHFDMPLNLAEKYNGFLSRKVKEAFVRFGQEMMKRFADKVKYWIVFNEHNLYFADGFEHYSGVLKKELTLSDMYTVFHHTMLAHCELTQFLHENFEAKIGGMLATTEIYPATFSPKDNLYLRKFDEFYNRNLCDVYAFGHYSHEVMTYVKNQNIQMDFQKGDEEILKNGISDFISFSYYRSILLDASQLTENDAPNSYLTKGMKLNPLLEHNQWDWSIDPEGFRRILSRLYNEFGLPVFPIENGIGQSEIWDGKTKIADDLRIFYHQKHLEAMKKAIFTDGVEVMGYLGWGLIDIPASSGAIDKRYGAVYVDPKSHKRIPKKSFHWFKNVFASNGDHLDEGHHHHHH | not soluble
15 | MSEVTDLTVIEIKPEQAPVLYVAGGLDAYLEQIRQAVNEVPDLSTKKGRDRVASLAAQVSRSKTAIEKPGREYLKRLKEAVRPAEAEIKRFVDACDELRDATRRPLTEWEAEQERIKAEEAMNALHAEALEMNIKFDQELAAKFEADHEMALLMNKDFDRDREEQRRLAEQARREHEERIKREAAEQARRDAEAKHKAEIEAAARREAEEKARAELAERQRIEAEQRAEREKKETEERARREKEEAVAAERRRQEEAEAARLVEEQRKAEEEARRAADKEHRRTVNRRVYADLIAQGIPEEYAQKAVLAIAGGKVQDAHIKY | not soluble
